Tests used:
[1] = molecular target: Skeletal muscle myosin (rabbit) (rabbit); test: BLI; SkM immobilised on Octet Red Amine Reactive Second-Generation Biosensor; FXI or PK in solution; 30 mM Hepes, pH 7.4, 0.01% Tween-20, 0.1% PEG, 50 mM NaCl, 30 °C
[2] = molecular target: Skeletal muscle myosin (rabbit) (rabbit); test: ELISA; SkM (10 μg/ml, sodium bicarbonate pH 9.3) immobilised on microtiter plate, blocked with 0.5% BSA; purified FXI 0–10 nM in 30 mM Hepes, pH 7.4, 130 mM NaCl, 2 h, room temperature; bound FXI detected with anti-FXI mAb AHXI-5061 and HRP-goat antimouse; apparent
[3] = molecular target: Skeletal muscle myosin (rabbit) (rabbit); test: ELISA; SkM immobilised on microtiter plate; diluted pooled plasma (endogenous FXI) in 30 mM Hepes, pH 7.4, 130 mM NaCl, 2 h, room temperature; bound FXI detected with anti-FXI mAb AHXI-5061, calculated from the curve of purified FXI; apparent

Sequence of Skeletal muscle myosin (rabbit) (rabbit) (Q28641 whole entry, chain 1 of 3): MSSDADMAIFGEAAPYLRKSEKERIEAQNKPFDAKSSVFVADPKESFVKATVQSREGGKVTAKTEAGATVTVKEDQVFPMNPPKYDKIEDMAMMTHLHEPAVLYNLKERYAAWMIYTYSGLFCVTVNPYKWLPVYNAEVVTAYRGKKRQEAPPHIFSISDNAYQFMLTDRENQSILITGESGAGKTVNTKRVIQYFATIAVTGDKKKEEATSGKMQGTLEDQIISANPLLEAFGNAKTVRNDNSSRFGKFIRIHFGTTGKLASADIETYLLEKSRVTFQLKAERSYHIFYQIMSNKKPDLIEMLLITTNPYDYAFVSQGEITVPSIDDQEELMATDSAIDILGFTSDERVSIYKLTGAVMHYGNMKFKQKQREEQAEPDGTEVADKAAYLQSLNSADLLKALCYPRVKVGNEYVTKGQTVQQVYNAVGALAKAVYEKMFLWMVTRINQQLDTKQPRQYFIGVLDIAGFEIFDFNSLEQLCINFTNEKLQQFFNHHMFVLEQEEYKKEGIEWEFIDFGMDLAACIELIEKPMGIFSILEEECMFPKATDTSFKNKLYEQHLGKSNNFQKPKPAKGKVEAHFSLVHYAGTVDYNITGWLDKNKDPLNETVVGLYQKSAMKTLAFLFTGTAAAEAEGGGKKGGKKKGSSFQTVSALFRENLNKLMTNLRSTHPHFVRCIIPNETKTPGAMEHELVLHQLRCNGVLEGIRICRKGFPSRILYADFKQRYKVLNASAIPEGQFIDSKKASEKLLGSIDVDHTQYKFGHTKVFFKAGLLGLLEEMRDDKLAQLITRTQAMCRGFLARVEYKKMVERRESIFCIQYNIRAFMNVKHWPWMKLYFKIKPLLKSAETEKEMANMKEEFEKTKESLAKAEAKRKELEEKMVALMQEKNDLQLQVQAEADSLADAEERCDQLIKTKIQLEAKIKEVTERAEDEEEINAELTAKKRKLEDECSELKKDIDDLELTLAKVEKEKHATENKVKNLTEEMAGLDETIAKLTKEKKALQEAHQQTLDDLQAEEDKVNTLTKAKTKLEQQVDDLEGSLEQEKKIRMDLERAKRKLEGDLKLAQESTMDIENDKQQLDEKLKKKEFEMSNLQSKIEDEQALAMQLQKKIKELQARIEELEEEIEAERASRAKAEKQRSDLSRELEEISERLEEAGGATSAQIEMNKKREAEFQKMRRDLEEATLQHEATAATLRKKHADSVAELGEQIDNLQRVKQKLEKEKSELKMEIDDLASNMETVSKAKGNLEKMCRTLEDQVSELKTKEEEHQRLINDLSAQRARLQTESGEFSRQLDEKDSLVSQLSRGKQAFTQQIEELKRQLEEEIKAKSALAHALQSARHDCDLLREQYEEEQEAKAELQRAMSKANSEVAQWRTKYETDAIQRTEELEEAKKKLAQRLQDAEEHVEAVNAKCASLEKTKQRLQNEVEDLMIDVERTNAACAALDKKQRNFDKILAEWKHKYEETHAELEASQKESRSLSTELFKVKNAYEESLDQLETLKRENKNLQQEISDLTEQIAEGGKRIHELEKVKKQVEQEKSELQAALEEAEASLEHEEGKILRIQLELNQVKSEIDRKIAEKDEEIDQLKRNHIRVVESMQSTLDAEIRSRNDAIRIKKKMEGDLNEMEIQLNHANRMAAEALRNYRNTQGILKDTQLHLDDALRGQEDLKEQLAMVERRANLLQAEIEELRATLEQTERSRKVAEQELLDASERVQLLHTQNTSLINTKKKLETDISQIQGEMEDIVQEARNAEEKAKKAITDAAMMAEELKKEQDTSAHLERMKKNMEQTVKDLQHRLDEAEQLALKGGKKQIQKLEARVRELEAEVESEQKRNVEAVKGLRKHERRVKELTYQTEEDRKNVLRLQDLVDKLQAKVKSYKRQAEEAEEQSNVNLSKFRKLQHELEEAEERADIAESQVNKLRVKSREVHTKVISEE
Sequence of Skeletal muscle myosin (rabbit) (rabbit) (P02602 2-192, chain 2 of 3, further chain): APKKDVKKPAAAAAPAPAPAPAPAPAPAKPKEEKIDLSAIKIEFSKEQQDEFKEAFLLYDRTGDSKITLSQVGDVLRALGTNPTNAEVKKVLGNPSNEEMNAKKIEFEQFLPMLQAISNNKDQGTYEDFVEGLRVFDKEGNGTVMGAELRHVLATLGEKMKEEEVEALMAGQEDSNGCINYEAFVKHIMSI
Sequence of Skeletal muscle myosin (rabbit) (rabbit) (P02608 2-170, chain 3 of 3, further chain): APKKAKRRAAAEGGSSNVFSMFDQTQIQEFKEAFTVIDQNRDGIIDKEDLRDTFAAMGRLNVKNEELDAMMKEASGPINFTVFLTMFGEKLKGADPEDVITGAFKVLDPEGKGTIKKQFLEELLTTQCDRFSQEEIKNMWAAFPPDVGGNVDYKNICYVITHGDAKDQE

## Coagulation factor XI (natural protein)
[1]
  Kd: 0.2 nM
  koff: 0.000795 s⁻¹
  kon: 3.87e+06 M⁻¹ s⁻¹
[2]
  Kd: 1.7 nM
[3]
  Kd: 0.7 nM

Reference: publication PMC8856988
